# In patent US20180127487A1 (Sanofi, published 2018):
# Where two headings read alike, the source gives them in different places.
# B1: mAb2 (antibody)
# heavy: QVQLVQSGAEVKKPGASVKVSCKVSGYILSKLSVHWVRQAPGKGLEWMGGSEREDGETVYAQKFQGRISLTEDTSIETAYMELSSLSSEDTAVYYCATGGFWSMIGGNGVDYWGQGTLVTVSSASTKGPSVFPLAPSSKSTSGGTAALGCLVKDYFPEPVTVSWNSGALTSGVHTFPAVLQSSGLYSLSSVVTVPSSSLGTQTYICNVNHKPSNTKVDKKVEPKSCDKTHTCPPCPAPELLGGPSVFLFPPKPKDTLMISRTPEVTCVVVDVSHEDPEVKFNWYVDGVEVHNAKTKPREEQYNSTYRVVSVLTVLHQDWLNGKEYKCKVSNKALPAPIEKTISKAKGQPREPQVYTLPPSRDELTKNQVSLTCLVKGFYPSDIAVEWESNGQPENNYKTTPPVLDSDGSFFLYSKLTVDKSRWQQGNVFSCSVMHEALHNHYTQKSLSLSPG
# light: QAVVTQSPSSLPASVGDRVTITCRASQDIRNNLGWYQQKPGKAPERLIYGTSNLQSGVPSRFSGSGSGTEFTLTISSLQPEDFATYYCLQHNSYPPTFGRGTKVEIKRTVAAPSVFIFPPSDEQLKSGTASVVCLLNNFYPREAKVQWKVDNALQSGNSQESVTEQDSKDSTYSLSSTLTLSKADYEKHKVYACEVTHQGLSSPVTKSFNRGEC
# notes: also called parent antibody mAb2
# B2: mAb11 (antibody)
# heavy: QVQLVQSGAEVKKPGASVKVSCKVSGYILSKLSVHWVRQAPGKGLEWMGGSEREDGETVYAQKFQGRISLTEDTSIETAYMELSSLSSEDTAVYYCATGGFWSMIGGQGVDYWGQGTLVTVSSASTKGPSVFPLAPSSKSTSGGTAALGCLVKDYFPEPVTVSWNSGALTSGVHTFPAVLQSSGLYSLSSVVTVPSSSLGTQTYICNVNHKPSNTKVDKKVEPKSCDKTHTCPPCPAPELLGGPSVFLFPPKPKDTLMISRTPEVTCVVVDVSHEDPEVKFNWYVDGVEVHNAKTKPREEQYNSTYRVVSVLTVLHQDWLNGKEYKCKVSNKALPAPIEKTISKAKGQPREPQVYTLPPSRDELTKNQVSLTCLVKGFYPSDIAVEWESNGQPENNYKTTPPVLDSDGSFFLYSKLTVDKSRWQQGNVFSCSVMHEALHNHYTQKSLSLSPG
# light: QAVVTQSPSSLPASVGDRVTITCRASQDIRNNLGWYQQKPGKAPERLIYGTSNLQSGVPSRFSGSGSGTEFTLTISSLQPEDFATYYCLQHNSYPPTFGRGTKVEIKRTVAAPSVFIFPPSDEQLKSGTASVVCLLNNFYPREAKVQWKVDNALQSGNSQESVTEQDSKDSTYSLSSTLTLSKADYEKHKVYACEVTHQGLSSPVTKSFNRGEC
# notes: also called mAb2N108Q; mAb2 N108Q
# B3: mAb14 (antibody)
# heavy: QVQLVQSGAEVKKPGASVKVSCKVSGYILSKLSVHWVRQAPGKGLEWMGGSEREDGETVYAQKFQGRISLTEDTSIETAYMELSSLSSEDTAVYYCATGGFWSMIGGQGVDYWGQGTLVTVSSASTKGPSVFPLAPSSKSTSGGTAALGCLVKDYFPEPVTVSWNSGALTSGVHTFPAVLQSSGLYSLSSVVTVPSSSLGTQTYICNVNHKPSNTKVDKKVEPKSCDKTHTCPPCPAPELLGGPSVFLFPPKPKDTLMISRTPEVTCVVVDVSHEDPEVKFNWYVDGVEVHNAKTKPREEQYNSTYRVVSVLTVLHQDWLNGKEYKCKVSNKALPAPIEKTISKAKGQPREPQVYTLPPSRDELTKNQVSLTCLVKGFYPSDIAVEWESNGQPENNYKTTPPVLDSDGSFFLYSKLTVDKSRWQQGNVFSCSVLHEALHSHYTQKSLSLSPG
# light: QAVVTQSPSSLPASVGDRVTITCRASQDIRNNLGWYQQKPGKAPERLIYGTSNLQSGVPSRFSGSGSGTEFTLTISSLQPEDFATYYCLQHNSYPPTFGRGTKVEIKRTVAAPSVFIFPPSDEQLKSGTASVVCLLNNFYPREAKVQWKVDNALQSGNSQESVTEQDSKDSTYSLSSTLTLSKADYEKHKVYACEVTHQGLSSPVTKSFNRGEC
# notes: also called mAb2N108QLS
# B4: mAb8 (antibody)
# heavy: QVQLVQSGAEVKKPGASVKVSCKVSGYILSKLSVHWVRQAPGKGLEWMGGSEREDGETVYAQKFQGRISLTEDTSIETAYMELSSLSSEDTAVYYCATGGFWSMIGGNGVDYWGQGTLVTVSSASTKGPSVFPLAPSSKSTSGGTAALGCLVKDYFPEPVTVSWNSGALTSGVHTFPAVLQSSGLYSLSSVVTVPSSSLGTQTYICNVNHKPSNTKVDKKVEPKSCDKTHTCPPCPAPELLGGPSVFLFPPKPKDTLYITREPEVTCVVVDVSHEDPEVKFNWYVDGVEVHNAKTKPREEQYNSTYRVVSVLTVLHQDWLNGKEYKCKVSNKALPAPIEKTISKAKGQPREPQVYTLPPSRDELTKNQVSLTCLVKGFYPSDIAVEWESNGQPENNYKTTPPVLDSDGSFFLYSKLTVDKSRWQQGNVFSCSVMHEALHNHYTQKSLSLSPG
# light: QAVVTQSPSSLPASVGDRVTITCRASQDIRNNLGWYQQKPGKAPERLIYGTSNLQSGVPSRFSGSGSGTEFTLTISSLQPEDFATYYCLQHNSYPPTFGRGTKVEIKRTVAAPSVFIFPPSDEQLKSGTASVVCLLNNFYPREAKVQWKVDNALQSGNSQESVTEQDSKDSTYSLSSTLTLSKADYEKHKVYACEVTHQGLSSPVTKSFNRGEC
# notes: also called mAb2YTE
# B5: mAb13 (antibody)
# heavy: QVQLVQSGAEVKKPGASVKVSCKVSGYILSKLSVHWVRQAPGKGLEWMGGSEREDGETVYAQKFQGRISLTEDTSIETAYMELSSLSSEDTAVYYCATGGFWSMIGGQGVDYWGQGTLVTVSSASTKGPSVFPLAPSSKSTSGGTAALGCLVKDYFPEPVTVSWNSGALTSGVHTFPAVLQSSGLYSLSSVVTVPSSSLGTQTYICNVNHKPSNTKVDKKVEPKSCDKTHTCPPCPAPELLGGPSVFLFPPKPKDTLYITREPEVTCVVVDVSHEDPEVKFNWYVDGVEVHNAKTKPREEQYNSTYRVVSVLTVLHQDWLNGKEYKCKVSNKALPAPIEKTISKAKGQPREPQVYTLPPSRDELTKNQVSLTCLVKGFYPSDIAVEWESNGQPENNYKTTPPVLDSDGSFFLYSKLTVDKSRWQQGNVFSCSVMHEALHNHYTQKSLSLSPG
# light: QAVVTQSPSSLPASVGDRVTITCRASQDIRNNLGWYQQKPGKAPERLIYGTSNLQSGVPSRFSGSGSGTEFTLTISSLQPEDFATYYCLQHNSYPPTFGRGTKVEIKRTVAAPSVFIFPPSDEQLKSGTASVVCLLNNFYPREAKVQWKVDNALQSGNSQESVTEQDSKDSTYSLSSTLTLSKADYEKHKVYACEVTHQGLSSPVTKSFNRGEC
# notes: also called mAb2N108QYTE
# B6: mAb9 (antibody)
# heavy: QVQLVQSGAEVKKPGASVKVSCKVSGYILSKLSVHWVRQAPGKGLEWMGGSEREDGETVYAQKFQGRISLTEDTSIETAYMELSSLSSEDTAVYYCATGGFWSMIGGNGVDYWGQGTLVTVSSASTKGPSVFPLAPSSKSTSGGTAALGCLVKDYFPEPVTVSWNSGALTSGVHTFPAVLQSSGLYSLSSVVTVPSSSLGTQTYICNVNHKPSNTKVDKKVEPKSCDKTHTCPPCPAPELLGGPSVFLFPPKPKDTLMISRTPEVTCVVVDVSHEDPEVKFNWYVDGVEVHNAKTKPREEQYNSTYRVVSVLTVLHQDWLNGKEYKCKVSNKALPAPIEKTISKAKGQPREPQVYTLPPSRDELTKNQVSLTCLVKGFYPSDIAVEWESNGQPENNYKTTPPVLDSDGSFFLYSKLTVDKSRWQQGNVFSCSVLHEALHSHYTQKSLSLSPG
# light: QAVVTQSPSSLPASVGDRVTITCRASQDIRNNLGWYQQKPGKAPERLIYGTSNLQSGVPSRFSGSGSGTEFTLTISSLQPEDFATYYCLQHNSYPPTFGRGTKVEIKRTVAAPSVFIFPPSDEQLKSGTASVVCLLNNFYPREAKVQWKVDNALQSGNSQESVTEQDSKDSTYSLSSTLTLSKADYEKHKVYACEVTHQGLSSPVTKSFNRGEC
# notes: also called mAb2LS
# Columns and labels:
# recombinant human FcRn [1] = biological target: T1, recombinant human FcRn (human, UniProt P55899 24-297; P61769 21-119); assay: SPR, human FcRn immobilised; relative to mAb2
# T1 construct: also called human FcRn receptor
# recombinant mouse FcRn [2] = biological target: T2, recombinant mouse FcRn (mouse, UniProt Q61559 22-297; P01887 21-119); assay: SPR, mouse FcRn immobilised; relative to mAb2
# T2 sequence 1: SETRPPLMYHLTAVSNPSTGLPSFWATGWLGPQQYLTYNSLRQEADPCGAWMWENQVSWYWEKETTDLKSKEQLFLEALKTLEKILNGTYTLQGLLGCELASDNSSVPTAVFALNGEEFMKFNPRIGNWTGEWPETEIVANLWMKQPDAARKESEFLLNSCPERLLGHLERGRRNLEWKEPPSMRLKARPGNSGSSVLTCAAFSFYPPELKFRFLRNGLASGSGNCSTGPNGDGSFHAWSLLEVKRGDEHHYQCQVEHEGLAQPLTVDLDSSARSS
# T2 sequence 2: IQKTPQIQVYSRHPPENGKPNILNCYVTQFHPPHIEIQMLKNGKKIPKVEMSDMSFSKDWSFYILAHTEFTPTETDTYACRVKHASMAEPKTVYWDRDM
# recombinant human FcRn [3] = biological target: T1, recombinant human FcRn; assay: SPR (Biacore T200), human FcRn immobilised on CM5 chip
# recombinant mouse FcRn [4] = biological target: T2, recombinant mouse FcRn; assay: SPR (Biacore T200), mouse FcRn immobilised on CM5 chip
# Antigen (E2) = Antigen (E2) (Chikungunya virus); assay: SPR (Biacore T200), His-tagged antigen captured by anti-His antibody, 1:1 model
# [5] = biological target: T3, His-tagged CHIKV E2 LR2006 (Chikungunya virus strain LR2006, UniProt Q8JUX5 326-1220)
# T3 construct: also called CHIKV pE2-E1 antigen derived from CHIKV strain LR2006; pE2-E1 target
# [6] = biological target: T4, Recombinant human HPC4-tagged FcγRIII-F158 (human, UniProt P08637 17-208); assay: SPR (Biacore 3000), HPC4-tagged FcγRIII-F158 captured on anti-HPC4 CM5 chip, antibody injected 2 min, in duplicate; concentration (900, 300 or 100 nM in the methods) not printed on the sheet
# T4 construct: also called FcγRIIIaF158; not shown: HPC4 tag
# [7] = biological target: T5, Recombinant human HPC4-tagged FcγRIIIa-V158 (human, UniProt P08637 17-208); assay: SPR (Biacore 3000), HPC4-tagged FcγRIIIa-V158 captured on anti-HPC4 CM5 chip, antibody injected 2 min, in duplicate; concentration (900, 300 or 100 nM in the methods) not printed on the sheet
# T5 construct: Valine at 158 is a polymorphism, named without an old residue; also called Val158; not shown: HPC4 tag
# [8] = biological target: T3, His-tagged CHIKV E2 LR2006; assay: SPR, His-tagged antigen captured (example 3, FIG. 5)
# [9] = biological target: T6, His-tagged CHIKV E2 SL15649 (Chikungunya virus strain SL15649, UniProt Q8JUX5 326-1220); assay: as above
# T6 construct: also called CHIKV pE2-E1 antigen derived from CHIKV strain SL15649; pE2-E1 target
# [10] = biological target: T3, His-tagged CHIKV E2 LR2006; assay: SPR, His-tagged antigen captured
# [11] = biological target: T6, His-tagged CHIKV E2 SL15649; assay: SPR, His-tagged antigen captured
# T5 sequence (P08637 17-208 F176V): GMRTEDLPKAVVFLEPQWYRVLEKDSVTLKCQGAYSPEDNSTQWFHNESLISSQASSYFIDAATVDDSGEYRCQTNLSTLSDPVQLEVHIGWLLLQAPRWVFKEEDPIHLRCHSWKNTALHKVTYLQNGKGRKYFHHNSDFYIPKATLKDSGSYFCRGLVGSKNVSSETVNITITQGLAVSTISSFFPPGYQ
# T4 sequence (P08637 17-208): as the sequence (P08637 17-208 F176V) above, with V160F counted along it
# T1 sequence (P55899 24-297 limits assumed, chain 1 of 2): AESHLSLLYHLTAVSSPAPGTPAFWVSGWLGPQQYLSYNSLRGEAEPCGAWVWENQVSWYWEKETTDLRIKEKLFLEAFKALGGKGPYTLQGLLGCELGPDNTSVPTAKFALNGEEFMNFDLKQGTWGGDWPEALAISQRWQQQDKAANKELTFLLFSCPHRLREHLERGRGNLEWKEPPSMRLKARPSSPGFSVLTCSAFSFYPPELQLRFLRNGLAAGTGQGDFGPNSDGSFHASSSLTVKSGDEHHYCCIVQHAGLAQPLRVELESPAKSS
# T1 sequence (P61769 21-119 limits assumed, chain 2 of 2): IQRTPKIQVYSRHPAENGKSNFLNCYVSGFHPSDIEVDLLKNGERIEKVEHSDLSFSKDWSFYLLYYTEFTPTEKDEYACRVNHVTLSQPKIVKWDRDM
binder,measurement,setting,value
B1,Affinity Increase (fold),recombinant human FcRn [1],1 fold
same,Affinity Increase (fold),recombinant mouse FcRn [2],1 fold
same,Kd,recombinant human FcRn [3],328 nM
same,Kd,recombinant mouse FcRn [4],22 nM
same,Kd,Antigen (E2),0.13 nM
same,binding result,[5],binds
same,binding result,[6],binds
same,binding result,[7],binds
B2,Affinity Increase (fold),recombinant human FcRn [1],1.1 fold
same,Affinity Increase (fold),recombinant mouse FcRn [2],1.1 fold
same,Kd,recombinant human FcRn [3],301 nM
same,Kd,recombinant mouse FcRn [4],20 nM
same,Kd,Antigen (E2),0.22 nM
same,binding result,[5],binds
same,binding result,[6],binds
same,binding result,[7],binds
B3,Affinity Increase (fold),recombinant human FcRn [1],18.2 fold
same,Affinity Increase (fold),recombinant mouse FcRn [2],3.6 fold
same,binding result,[8],binds
same,binding result,[9],binds
same,Kd,recombinant human FcRn [3],18 nM
same,Kd,recombinant mouse FcRn [4],6.2 nM
same,Kd,Antigen (E2),0.12 nM
same,binding result,[6],binds
same,binding result,[7],binds
B4,binding result,[10],binds
same,binding result,[11],binds
same,Affinity Increase (fold),recombinant human FcRn [1],14.1 fold
same,Affinity Increase (fold),recombinant mouse FcRn [2],19.5 fold
same,Kd,recombinant human FcRn [3],23 nM
same,Kd,recombinant mouse FcRn [4],1.2 nM
same,binding result,[6],binds
same,binding result,[7],binds
B5,Affinity Increase (fold),recombinant human FcRn [1],13.7 fold
same,Affinity Increase (fold),recombinant mouse FcRn [2],13.7 fold
same,binding result,[8],binds
same,binding result,[9],binds
same,Kd,recombinant human FcRn [3],24 nM
same,Kd,recombinant mouse FcRn [4],1.6 nM
same,binding result,[6],binds
same,binding result,[7],binds
B6,binding result,[10],binds
same,binding result,[11],binds
same,Affinity Increase (fold),recombinant human FcRn [1],16.6 fold
same,Affinity Increase (fold),recombinant mouse FcRn [2],3 fold
same,Kd,recombinant human FcRn [3],20 nM
same,Kd,recombinant mouse FcRn [4],7.5 nM
same,Kd,Antigen (E2),0.25 nM
same,binding result,[6],binds
same,binding result,[7],binds
